Columns and labels:
人OX40抗原(购自Sino) = target: T1, 人OX40抗原(购自Sino) (human, UniProt P43489 29-216, limits assumed); test: direct ELISA on coated human OX40 antigen; relative binding activity after 1 month at 40℃±2℃, pH 5.0-7.0 samples
T1 construct: Bought antigen coated on the ELISA plate; also called human OX40; CD134
T1 sequence (looked up): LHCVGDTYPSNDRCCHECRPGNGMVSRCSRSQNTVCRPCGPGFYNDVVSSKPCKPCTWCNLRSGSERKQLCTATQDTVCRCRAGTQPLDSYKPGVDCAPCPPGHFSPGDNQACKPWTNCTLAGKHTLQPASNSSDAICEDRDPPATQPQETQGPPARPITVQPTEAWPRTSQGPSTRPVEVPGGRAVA

人PD-L1抗原(购自Promega) = target: T2, 人PD-L1抗原(购自Promega) (human, UniProt Q9NZQ7 19-238, limits assumed); test: direct ELISA on coated human PD-L1 antigen; relative binding activity after 1 month at 40℃±2℃, pH 5.0-7.0 samples
T2 construct: Bought antigen coated on the ELISA plate; also called human PD-L1; CD274
T2 sequence (Q9NZQ7 19-238 limits assumed): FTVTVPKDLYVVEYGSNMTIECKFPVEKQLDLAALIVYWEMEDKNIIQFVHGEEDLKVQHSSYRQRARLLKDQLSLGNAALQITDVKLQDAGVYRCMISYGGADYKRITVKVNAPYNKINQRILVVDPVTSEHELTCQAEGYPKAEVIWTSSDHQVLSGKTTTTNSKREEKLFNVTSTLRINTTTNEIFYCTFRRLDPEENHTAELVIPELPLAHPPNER

binding result (人OX40抗原(购自Sino)): binds | binding result (人PD-L1抗原(购自Promega)): binds
B1: 抗PD-L1/OX40双特异性抗体 (bispecific antibody, human IgG2, kappa)
heavy: QVQLVQSGAEVKKPGASVKVSCKASGYTFTSYYMHWVRQAPGQGLEWMGIINPSGGSTSYAQKFQGRVTMTRDTSTSTVYMELSSLRSEDTAVYYCARDHASSSWYTTHLDLWGRGTLVTVSSASTKGPSVFPLAPCSRSTSESTAALGCLVKDYFPEPVTVSWNSGALTSGVHTFPAVLQSSGLYSLSSVVTVPSSNFGTQTYTCNVDHKPSNTKVDKTVERKCCVECPPCPAPPVAGPSVFLFPPKPKDTLMISRTPEVTCVVVDVSHEDPEVQFNWYVDGVEVHNAKTKPREEQFNSTFRVVSVLTVVHQDWLNGKEYKCKVSNKGLPAPIEKTISKTKGQPREPQVYTLPPSREEMTKNQVSLTCLVKGFYPSDIAVEWESNGQPENNYKTTPPMLDSDGSFFLYSKLTVDKSRWQQGNVFSCSVMHEALHNHYTQKSLSLSPGGGGGSGGGGSQVQLQESGGGLVQPGGSLRLSCAASAYTISRNSMGWFRQAPGKGLEGVAAIESDGSTSYSDSVKGRFTISLDNSKNTLYLEMNSLRAEDTAVYYCAAPKVGLGPRTALGHLAFMTLPALNYWGQGTLVTVSS
light: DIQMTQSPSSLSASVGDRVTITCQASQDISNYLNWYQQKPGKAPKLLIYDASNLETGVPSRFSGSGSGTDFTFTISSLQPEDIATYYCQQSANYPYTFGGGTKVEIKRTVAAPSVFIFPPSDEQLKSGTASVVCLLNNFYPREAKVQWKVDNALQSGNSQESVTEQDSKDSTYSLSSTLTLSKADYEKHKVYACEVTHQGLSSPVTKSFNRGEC
notes: also called 重组抗肿瘤坏死因子受体超家族成员4(OX40)和抗程序性死亡配体1(PD-L1)双特异性抗体; anti-PD-L1/OX40 bispecific antibody
